From patent US6894154 (REGENTS OF THE UNIVERSITY OF MICHIGAN, dated 2005) come the findings set out here.

First the molecules themselves.
B1: pLAM5′ (human laminC/GAL4 DNA binding domain) (other, UniProt P04386 1-147, looked up)
chain: MKLLSSIEQACDICRLKKLKCSKEKPKCAKCLKNNWECRYSPKTKRSPLTRAHLTEVESRLERLEQLFLLIFPREDLDMILKMDSLQDIKALLTGLFVQDNVNKDAVTDRLASVETDMPLTLRQHRISATSSSEESSNKGQRQLTVSSEEVVSREVSGIKAAYEAELGDARKTLDSVAKERARLQLELSKVREEFKELKARNTKKEGDLIAAQARLKDLEALLNSKEAALSTALSEKRTLEGELHDLRGQVAKLEAALGEAKKQLQDEMLRRVDAENRLQTMKEELDFQKNIYSEELRETKRRHETRLVEID
notes: Bought control plasmid (Clontech)
B2: in vitro translated hKIS from pcDNA3.1/His ([35S]-methionine-labeled or unlabeled, epitope-tagged) (protein)
chain: MAGSGCAWGAEPPRFLEAFGRLWQVQSRLGSGSSASVYRVRCCGNPGSPPGALKQFLPPGTTGAAASAAEYGFRKERAALEQLQGHRNIVTLYGVFTIHFSPNVPSRCLLLELLDVSVSELLLYSSHQGCSMWMIQHCARDVLEALAFLHHEGYVHADLKPRNILWSAENECFKLIDFGLSFKEGNQDVKYIQTDGYRAPEAELQNCLAQAGLQSDTECTSAVDLWSLGIILLEMFSGMKLKHTVRSQEWKANSSAIIDHIFASKAVVNAAIPAYHLRDLIKSMLHDDPSRRIPAEMALCSPFFSIPFAPHIEDLVMLPTPVLRLLNVLDDDYLGNEEEYEDVVEDVKEECQKYGPVVSLLVPKENPGRGQVFVEYANAGDSKAAQKLLTGRMFDGKFVVATFYPLSAYKRGYLYQTLL
B3: hKIS (human KIS), clone C21, fused to the GAL4 activating domain (enzyme, not shown: large carriers)
chain: B2 chain
notes: Prey of the yeast two-hybrid assay; also called the clones

For series [1], the target named is B3. Nature of the series: yeast two-hybrid, beta-galactosidase staining.
In series [2] the target is NH2-terminal GST-p27^Kip1 with serine 10 to alanine (pGSTp27^Kip1 NH2S1OM).
Series [3] deals with T1, NH2-terminal GST-p27^Kip1.
T1 chain: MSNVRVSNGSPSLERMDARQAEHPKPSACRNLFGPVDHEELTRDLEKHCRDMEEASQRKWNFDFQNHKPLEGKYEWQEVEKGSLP

Series [4] concerns the target p16^Ink4 as used in the in vitro phosphorylation assay.
The target of series [5] is p21^Cip1 as used in the in vitro phosphorylation assay.
For series [6], the target named is T2, p57^Kip2 as used in the in vitro phosphorylation assay.
T2 sequence (P49918 1-316, species assumed, looked up): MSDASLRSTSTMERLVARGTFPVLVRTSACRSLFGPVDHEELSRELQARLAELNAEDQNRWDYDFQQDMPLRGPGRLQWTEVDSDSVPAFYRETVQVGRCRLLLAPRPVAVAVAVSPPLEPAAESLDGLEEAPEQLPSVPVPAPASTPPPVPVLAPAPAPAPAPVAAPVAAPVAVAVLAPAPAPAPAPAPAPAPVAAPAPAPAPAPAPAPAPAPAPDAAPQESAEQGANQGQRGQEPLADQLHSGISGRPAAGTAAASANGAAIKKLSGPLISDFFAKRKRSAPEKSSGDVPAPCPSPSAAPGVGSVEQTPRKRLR

Series [7] has as its target purified recombinant p27^Kip1 (bacterial-produced).
The target of series [8] is T3, pVA3 (murine p53/GAL4 DNA binding domain) (murine, UniProt P04386 1-147; P02340 72-390).
T3 construct: Bought control plasmid (Clontech)
As to the kind of experiment: yeast two-hybrid, beta-galactosidase staining.

With B1, the binding result in series [1] is “no binding”.
Consider B2, for which the “in vitro phosphorylation assay” value is recorded as “mutation of serine 10 to alanine (S10A) abolished phosphorylation of GST-p27^Kip1” in series [2] and “phosphorylation of GST-p27^Kip1 was detected in the NH2.terminal region of the protein” in series [3]. The “in vitro phosphorylation in the presence of ^32P-ATP” value is on record as “hKIS did not phosphorylate p57^Kip2, p21^Cip1 or p16^Ink4” in series [4]; “hKIS did not phosphorylate p57^Kip2, p21^Cip1 or p16^Ink4” in series [5]; “hKIS did not phosphorylate p57^Kip2, p21^Cip1 or p16^Ink4” in series [6]; “hKIS readily phosphorylated bacterial-produced p27^Kip1” in series [7].
B3: the binding result in series [8] was “no binding”.
